# Test: soluble on expression in E. coli; label from the status in PepcDB or PDB records
row,Sequence,soluble on expression in E. coli
1,MGSDKIHHHHHHMKLPANQEKNQPVPVVKPSSTLEEINQNAAGIDLGSGEHWVCVPPDRADKNVRRFGCFTPDLIAMADWLKECRINTVAMEATGVYWIPVFQVLEAKGFEVKLVNAHHVKTVPGRKTDVLDCQWLQKLHTYGLLSGSFRPEDQVCVLRSYIRQRDTLIKSASAHIQRMQKALIQMNLHLHKVISDVTGLTGMKIIKAIVAGEQDPQVLASLKDPHIKSSTADIAASLTGDYRREHLFVLQQELTLYEIYQQQIIAVDAEIEKCLAYA,not soluble
2,MYRDRVRLPSLLDKVMSAAEAADLIQDGMTVGMSGFTRAGEAKAVPQALAMRAKERPLRISLMTGASLGNDLDKQLTEAGVLARRMPFQVDSTLRKAINAGEVMFIDQHLSETVEQLRNHQLKLPDIAVIEAAAITEQGHIVPTTSVGNSASFAIFAKQVIVEINLAHSTNLEGLHDIYIPTYRPTRTPIPLTRVDDRIGSTAIPIPPEKIVAIVINDQPDSPSTVLPPDGETQAIANHLIDFFKREVDAGRMSNSLGPLQAGIGSIANAVMCGLIESPFENLTMYSEVLQDSTFDLIDAGKLRFASGSSITLSPRRNADVFGNLERYKDKLVLRPQEISNHPEVVRRLGIIGINTALEFDIYGNVNSTHVGGTKMMNGIGGSGDFARNAHLAIFVTKSIAKGGNISSVVPMVSHVDHTEHDVDILVTEQGLADLRGLAPRERARVIIENCVHPSYQAPLLDYFEAACAKGGHTPHLLREALAWHLNLEERGHMLAG,soluble
3,LDDKTGLGTILNPQATYFDYQATQSGAGSFNYTVKGDNLTATSQIVLAVNAGETPGNNIPVADNITLSTFNNVDAIIDLSAYITDADGDTLRINKLVSASNRFTLNGFQVTFAPDGFVGVDQAVYSVDDGRGGYALAYIVVTSNDANPPAPNTAPVAKDDSLSMDVAKQSVLNINLSGLISDADGDSLKVVTLYSHNDRAVLKENASVDYTPGNFRGVDQFTYLVSDGKGGYDLGTVTVTVGDSTPPTPPTPSLVAYQQAFVLDVDQLQTIDVTQSVTSEHLDAWSLTTVQDSTNLGVVSAKTATTFNYLAQTPGVAQIDYSVQGGSLSANSTITVAINAPVTPDNHRPEAQDTQLETLNNASKTIDLQGKISDVDGDTLSITLHGSARFSLNGTQVTFTPNGFVGLDQAVYSVEDGKGGYALANIVAISEDANPPVPNMAPTANDAQFTLDVAKNVTFNIDLVAQRLIADADGDALSIAHIYTANNRATKQGATGITYTPGAFRGVDQFTYVITDGKDGYAINAITVVVNDSTPANKIPTAGPVTAKMLHNDPAITISVNSAVSDADGDTLKIVSISGALGQASINPANALEMLYEPKGFVGTDRFVYVVSDDNGGYAMGEVTVTVTDSNPTAPVANTVQENTLLDTPINIDLSAYISDKETETANLVISNVTNATSPAVATLSGQTVIYTPNGFTGNDILTYTVTDGRH,not soluble
4,MSAACWEEPWGLPGGFAKRVLVTGGAGFIASHMIVSLVEDYPNYMIINLDKLDYCASLKNLETISNKQNYKFIQGDICDSHFVKLLFETEKIDIVLHFAAQTHVDLSFVRAFEFTYVNVYGTHVLVSAAHEARVEKFIYVSTDEVYGGSLDKEFDESSPKQPTNPYASSKAAAECFVQSYWEQYKFPVVITRSSNVYGPHQYPEKVIPKFISLLQHNRKCCIHGSGLQTRNFLYATDVVEAFLTVLKKGKPGEIYNIGTNFEMSVVQLAKELIQLIKETNSESEMENWVDYVNDRPTNDMRYPMKSEKIHGLGWRPKVPWKEGIKKTIEWYRENFHNWKNVEKALEPFPV,soluble
5,MFGIDGLEFLVILLVLIVVVGPKDLPKMLKTMARAIAYVRSTANEFRHQFDDAIKQAELDDLQKTLSDMNDFNPDKKLTGILNPMQDIRGDILNNFDVNTTHHKLEKDQENFECNENKTNEDLDVPVDAHSSGSVFVTSKDKESAS,not soluble
6,MASKSQKKVLKKQNKKKKKDPLAPKRALSAYMFYVKDKRLEIIKEKPELAKDVAQVGKLIGEAWGQLSPAQKAPYEKKAQLDKVRYSKEIEEYRKKNQE,soluble
7,MPQALSTDILIVGGGIAGLWLNARLRRAGYATVLVESASLGGGQSVKSQGIIHGGAKYALHGALTGASEAIADMPRRWRACLGSDGELDLRGVRLLSEAHYLWSPGGLAGSLTSFFASKAVRSRVEQAKGEDLPPALRDKGFKGKAYRLTEIVFDVPDLIRRLAELAGDSLLAGERIEPLREGRELAGLCVDGREIRAQRVVLSAGAGNEALLRELGLEQPAMQRRPLHMVMVKAATLKPLYAHCLGAGPKPRITVTTHPTRDGQSVWYLGGDIAETDGVARDEAAQIAEARRELAKLLPWIDLGQAQWATLRVDRAEPAQSNLLRPDNAFLAEQGRLLVGWPTKLALAPDFADRVCARLEEDGIRPSEHAALPQLPRPPLAEPAWEVAFALEHHHHHH,not soluble
8,PIFTLNTNIKATDVPSDFLSSTSALVGNILSKPGSYVAVHINTDQQLSFGGSTNPAAFGTLMSIGGIEPSRNRDHSAKLFDHLNTKLGIPKNRMYIHFVNLNGDDVGWNGTTF,soluble
9,MDKMLEKFEGSILGLSIGDALGMPTEWFTKEEIAEKYGLIDNFVDPKNKFNGILKAGQYTDDTDQTIAILNSFDVRGFNNDIFIKELIKWYNNNPVGMGPTSTKAIEKLIEGDTTGCDSRTCGSSMRVGPLGLFYFGEYDKLKEITIKATKLTHNNDEAIAGALSIAFFVAESVNNVKSEKSIKRCAKFIEDVSYDFSEKILLINDLNSADEAYELFDTGLPAIECVPSAIATFLRTDTFKDGMISCVNAGGDTDSMGSMYGAIAGAYYGVLNIPELWIAGLQNKDLLVDLSKKLYKLRFKKLEHHHHHH,soluble
10,MHHHHHHSSGVDLGTENLYFQSMARLPKLAVFDLDYTLWPFWVDTHVDPPFHKSSDGTVRDRRGQDVRLYPEVPEVLKRLQSLGVPGAAASRTSEIEGANQLLELFDLFRYFVHREIYPGSKITHFERLQQKTGIPFSQMIFFDDERRNIVDVSKLGVTCIHIQNGMNLQTLSQGLETFAKAQTGPL,soluble
11,MDNSVMLDYLAVTIKGLAPDDVIEKILILPKDKFVLNEWGINKYQRHYSFSEIKVYFNKDWQSKMGVFIELRGQGCRQYEEYMENNVNNWVTLMKRISECHSNVTRLDIANDIFDDSLSVPLIYSYCKKQLCISTAKTFDYHEKSLLENGEKVGEMVTIGVRGTQQWCVYNKLLEQKLDQELPNTPLSWTRAELRCWQEKANLLAKQIKEGRPLKEIYFEVINGHYRFVSPRDKDSNRWRRKTVKWWNDYLETQEKTVLSVKRTKPTLKRSEKWTEKQVSRTLGKLYVAKAESHGQEKADSYIQHLLELGISKLTETDETDIQQYKQEQLSSAYWGIRKDDL,not soluble
12,MNQQDIEQVVKAVLLKMKDSSQPASTVHEMGVFASLDDAVAAAKRAQQGLKSVAMRQLAIHAIREAGEKHARELAELAVSETGMGRVDDKFAKNVAQARGTPGVECLSPQVLTGDNGLTLIENAPWGVVASVTPSTNPAATVINNAISLIAAGNSVVFAPHPAAKKVSQRAITLLNQAVVAAGGPENLLVTVANPDIETAQRLFKYPGIGLLVVTGGEAVVDAARKHTNKRLIAAGAGNPPVVVDETADLPRAAQSIVKGASFDNNIICADEKVLIVVDSVADELMRLMEGQHAVKLTAAQAEQLQPVLLKNIDERGKGTVSRDWVGRDAGKIAAAIGLNVPDQTRLLFVETPANHPFAVTEMMMPVLPVVRVANVEEAIALAVQLEGGCHHTAAMHSRNIDNMNQMANAIDTSIFVKNGPCIAGLGLGGEGWTTMTITTPTGEGVTSARTFVRLRRCVLVDAFRIV,not soluble
13,MKTFESLFAELSEKAQTRPEGSLTVDELDKGTHFIGKKIIEEAGETWMAAEYEGADRTAEEMSQLLYHVQVMMIKHGLTLEDVYKHL,soluble
14,MSGLRVYSTSVTGSREIKSQQSEVTRILDGKRIQYQLVDISQDNALRDEMRTLAGNPKATPPQIVNGNHYCGDYELFVEAVEQDTLQEFLKLA,soluble
15,MGSDKIHHHHHHMDIRQLKTFIAIAEHGTFAKAADAVGLTPSAVSQQIQALESEVRGELFDRATRPIMLNGHGLQMLEAARTLVRDADNIIDAISGRAVSGTFTIGSVRSSALSLLPLSIVALKADYPDLRIKLQVANTDELLKDVMSGRLDCAMVAEYSGIPSALRWQPFINEPLLVIGPNGTPKMSGFDMLSKLPYVRFNSKFRLAQIIETELAKTRIVPNLIAEIDTIASVVSCVIHGLGVSVVPWIALRDIAAPIVAVQFGEPQILRPIGLLERRSGTRAQIIDRLHQNLARLSDPYGIPR,not soluble
16,MSLEKTKLPWDEFFSLNKDINHTYFTPEDFSGDEDLIAKTTEQFVKQEIVPQMENIEQHNYKVSRQLFEKAGELGLLGIEVPEDYGGFELGKAVSGLVAEKMGYAGAFSVSFNIHAGVGTLPYIYYGTKEQKEKYLPKIASGEWIGAYALTEPNAGSDALSAKTSAVLNEEGTAWKLNGEKQWITNAHMADVYVVFAKTNKGMTAFIVERTCEGVSIGLEEKKMGIKGSSTATLILEDVVIPAENVLGEVGKGHHVALNILNFARLKLAFGNIGTAKQAIGLSVQYGKERKQFQTELVDFTMIQEKIANMIIATYGAESAAYRTAGVIDEAIHESDEDLMKKMSQFAIECALNKVNASETLAYIVDEAVQIHGGYGYMQEYEVERLYRDARISRIFEGTNEINRLTVAKMLMKQIEQLEDTEVESDVANVERNHRYILLAKKLLKQSLKTLSKTPGLKIDQEQEYSRVISNMLTDVYVMESAFLRTRKAVSKNGEEKERTKQLITDVICEEGYRKVEEAAISVLSAAVTEEQDRHVILAEIRQLLVPLYTNVFTKKREIAKAIINRGKYIVEGHHHHHH,soluble
17,MPYAIDFGTTNTVIARWNEATRQGNLIDLPSLSHPLGDSGPLVPSLLYVENAALGQVAIAREVLDRGRDISTDTRFFKNFKRGIGVAVQGFLPQLDGHTLSLETLGQWYLDKLIRILTEQEGQGPDCLALTVPVDSFESYRHWLSHTCRSWGVEEVRLVDEPTAAALGYGVGDASQILVLDFGGGTVDFSWVQLGDRGQKGRSGFLLKWGGILGGSKAEEKSALAKVLAKAGANLGGSDIDYWISEYFTEAQGLQVSPWIRRLAERLKIALGEAEEATEVYFDDQALESYEFQLRRSDLTEILQQRQFFERLTALWEQVQQTAQRRGLTPANLDAVLVVGGTSQLPMVQDWINAQFPAGKIRNQQPFGAIALGALQIYQGREVQDYLYHSYGVRYWNRRKNSHNWHPIIKNGQTYPMAEPIELTLGASLDNQPSIELIVGELGSSIGATEVYFDGNQLITRVLENQAFTVQPLNDRNGARQIAQLSPPGVPGGDRIKVKFWVDDQRYLRLTVEDLLQQKLLLENQVVAQLRLEHHHHHH,not soluble
18,MGSDKIHHHHHHMPQSDIFGKAYHEATKHSYLSVQLDPNYLDASTQPSAFKFYPKFYRRVKLNLDNPIHSFIWLTSAVTFEKVYNNVAYKLRVNPSAGALYPTEMYVQIRGMPKIVDGIYHLEVENNCLTLIYELIDDGLESYVIPTKCITGFIFLISSVYYRSSWKYKQRSLRYCLLDSGHHLGAVAASAYLHSRDIQLIFDFDKLALNTDLGFENKEFITGCAISGEIHEKQIRKLRLKVPFVCGTDYFEANQFIEDSYQATSVQPSHQQQLQQPCFDFEQDKFYQTVWNRRSIRRFRKEFISQEHYLYVLQLLQQPIPTESGEEIEIYSVIHRVEGMKSGLYKGANLVKAGDFSEHTGYLCVNQALARDCAVVLFFVSKYTSYQTAMQIAGFLGQRIYLGSNYVGIQCSGIGAFYDDETQEFLETHKDVLYATAIGT,not soluble
